Measurements reported in the nanobody polyreactivity screen of Harvey et al. (2022).

Assay: yeast display, Sf9 membrane polyspecificity reagent, FACS + sequencing; frameworks hold sequencing errors
Outline: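 After 36–48 hours of galactose induction, yeast (Saccharomyces cerevisiae BJ5465) displaying a synthetic nanobody library were stained at 4 °C for 1 hour with 10% biotinylated, detergent-solubilized Sf9 membrane reagent. Streptavidin microbeads enriched the stained cells before FACS sorting into low and high (top ~1%) gates on anti-HA and streptavidin fluorescence. Each clone's polyreactivity label reflects its gate of origin.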

Sequence | polyreactivity (PSR sort gate)
QVQLVESGAGLVQAGGSLRLSCAASGFTFRYYAMGWYRQAPGKERELVATISASSGSTYYADSVKGRFTISRDNAKNTVYLQMNSLKPEDTAVYYGAKEPLASGWGYDYWGQGTQVTVSS | high polyreactivity
QVQLVESGAGLVQAGGSLRLSCAASGHTFYYNTMGLYRQAPGKERELVAVISWSGSRTYYADSVKGRFTISRDYAKNTVYLQMNSLKPEDTAVSYCNAVYSHRREYWGEGTQVTVSS | high polyreactivity
QVQLVESGAGLVQAGGSLRLSCAASGITFAYYAMGWYRQAPGKERELVAAIRGGTNTYYADSVKGSYTISRDNAKNTVYFLMNSLKPEDTAVYYCAARRSSHWFTYDYWGQGTLVTVSS | high polyreactivity
QVQLVESGAGLVQAGGSLRLSCAASGITFRGYAMGWYRQAPGKERELVAAISSRGGSTYYADSVMGRFTISRDNAKNTVYLQMNSLKPEDTAVYYCNAVSGLYFTYTYDYWGQGTQVTVSS | high polyreactivity
QVQLVESGAGLVQAGGSLRLSCAASGRIFYWYAMGWYRQAPGKERELVAAIRRRVGSTYYADSVKGRFTISRDNAKNTVYLQMNSLKPEDTAVYYCAAVITSDGARYDYWGQGTQVTVSS | high polyreactivity
QVQLVESGAGLVQAGGSLRLSCAASGRIVYYVMGWYRQAPAKEMELVAAISTRGGSTYYADSVKGRFTISRDNAKNTVYLQINSLKPEDTAVYYCAASSLLTRFNSWGQGTQVTVSS | high polyreactivity
QVQLVESGAGLVQAGGSLRLSCAASGRTFGSNAMGWYRQAPGKERELVAAITRGGSTNYADSVKGRFTISRDNAKNTVYLQMNSLKPEDTAVYYCAKRSYYRYRYYYWGQGTQVSVSS | high polyreactivity
QVQLVESGAGLVQAGGSLRLSCAASGRTFRPNPMGWYRPAPWKDRELVASITSGGRTNYADSVKGRFTISRDNAKNTVYLQMNSLKPEDTAVYYCAADHYHGYWKYDYWGQGTQVTVSS | low polyreactivity
QVQLVESGAGLVQAGGSLRLSCAASGRTFTSNSMGLYIQAPGKERELVASISFRGGRTYYADSVKVRFTISRDNAKNTVYLQMNSLKPEDTAVYYCVSGTKRTGYGYWGQGTLVTVSS | high polyreactivity
QVQLVESGAGLVQAGGSLRLSCAASGSIFSPYDMGWYRPAPGKERELVAAISRSGRTHYADSVKGRFTISRDNAKNTVYLQMNSLKPEDTAVYYCAAGVVSGYYYWGHGTQVTVSS | high polyreactivity
QVQLVESGAGLVQAGGSLRLSCAASGSIFYDYAMGVYRQAPGKERELVAAISSSGITYYADSVKGRFTISRDNAKNTVYLQMNSLKPVDTAVYYCNARSYLRDYYYWGQGTQVTVSS | high polyreactivity
QVQLVESGAGLVQAGGSLRLSCAASGSILKKYGMGLSRQAPGKERELVARISKSGGSTFYADSVKGRFTISRDNAKNTVYLQMNSLKPEDTAVYYCATLKYPYATSQGYDYWGQGTQVTVSS | high polyreactivity
QVQLVESGAGLVQAGGSLRLSCAASGSTCPGNAMGWYRQAPGKERELVAVINSGGGTNYADSVKGRFTISRDNAKNTVYFQINSLNPEDTAVYYCAKGYRRSFIGYWYLKYGYWGQGTQVTVSS | high polyreactivity
QVQLVESGAGLVQAGGSLRLSCAASGSTFDAYALGWSRPAPGKERELVAGISSGGSYEFADSVKGRFTISRDYAKNTVYVQMNSLKPEDTAVYYCAADSRQSDYYYQPTKFDYWGQGTQVTVSS | low polyreactivity
QVQLVESGAGLVQAGGSLRLSCAASGSTFHYYAMGLYRQAPGKERELVATITWRGGFTYYADSVKGRFTISRDNAKNTVYLQMNSLKPEDTAGYYCTDYYVRRYRDPRLYYWGQGTQVTVSS | high polyreactivity
QVQLVESGAGLVQAGGSLRLSCAASGSTFRPNVMGWSRQAPGKERELVAAITYSGRSTYYADSVKGRFTISRDNAKNTVYLQMNTLKPEDTAVYYCAARTWLRYCYWGQGTQVTVSS | high polyreactivity
QVQLVESGAGLVQAGGSLRLSCAASGSTFYINTMGLYRQAPGKEREFVAAITWSGGSTYYADSVKGRFTISRDNAKNSGYLQMNSLKPEDTAVYYSAADLYVGDMDYRGQGTQVTVSS | low polyreactivity
QVQLVESGAGLVQAGGSLRLSCAASGSTVAGNAMGGYRQAPGTERELVAAIDSSTGSTYYADCVKGRFTISRDNAKITVYLLMNSLKPEDTAVYYCADDQVHKREYDYWGQGTQVTVSS | low polyreactivity
QVQLVESGAGLVQAGGSLRLSCAASVRIFDSYAMGWSRQAPGKERELVAAITGSGGRTYYAESVKGRFTISRDNAKNTVYLQMNSQKPEYTAVYYCARALGQRRYDYWGQGTHVTVSS | high polyreactivity
QVQLVESGAGLVQAGGSLRLSCAAYGSIFIIYAMGWYRQAPGKERELVAAINTSGTSTYYADSVKGRFTISRDNAKNTVYLQMNSLKPEDTAVYYCAAAGRRSYKYYYWGQGTQVTVSS | high polyreactivity
QVQLVESGAGLVQAGGSLRLSCADSGSIFYYYAMGWYRQAPGKEREFGAAIRESVGSTYYADSVKGSFTISRDNAKNTVYLQMNSRKPEDTAVYYCAVRRPRRNYNYPYDYWGQGTQVTVSS | low polyreactivity
QVQLVESGAGLVQAGGSLRLSCAPSGRIFDKYAMGWYRQAPGTERELVAAIDWSGGSTYYADSVKGRFTISRDNAKNTVYLQMNCLKPEDTAVYYCAAYWYYEDGQSEARLYGYDYWGQGTQVTVSS | low polyreactivity

Sequence | polyreactivity (PSR sort gate)
QVQLVESGAGLVQAGGSLRLSCAPSGRIFTPYAMGWYRQAPGKERELVAVIRDGSTYYADSVKGRFTISRDNSKNTVYLQMNSLKPEDTAVYYCRYDIWVWWSGAYDYWGQGTQVTVSS | low polyreactivity
QVQLVESGAGLVQAGGSLRLSCAPSGSTFGDNAMGWYRQAPGKERELVAAISSGGGSTYYADSVKGRFTISRDNAKNTVYLQMNSLKPEDTAVYYCAADGTLTLYRYILDYWGQGTQVTVSS | low polyreactivity
QVQLVESGAGLVQAGGSLRLSCASSGFILTGYTMGWYRQAPGKERELVAAISWSGARTYYADSVKGRFTISRDNAKNTVYLQMNSLKPEDTAVYYCARDYYRPTQRYDYWGQGTQVTVSS | high polyreactivity
QVQLVESGAGLVQAGGSLRLTCAASGSTFNRYVMGWYRQAPGKERDFVATISQGGGSTYYADSVKGRFTISRDNAKNTVYLHMNSLKPDVTAVYYCAAVSTRQYRYPHEYWGQGTQVTVSS | high polyreactivity
QVQLVESGAGLVQAGGSLRVSCAASGRTFAHYAMGWYRQAPGKERELVAAISSGASTNYADSVKGRFTISRDNAKNTVYLQMNSLKPEDTAVYYCAKQAKYHQGTYDYWGQGTQVTVSS | low polyreactivity
QVQLVESGAGLVQAGGSLRVSCAASGSTFDSYAMGLYRQAPGKERELVAAITNGGSTYYADSVKGRFTISRDHAKNTVYLQMNRLKPEDTAVYDCATEDYLLDYLYDYWGPGTQVTVSS | low polyreactivity
QVQLVESGAGLVQAGGSLSLSCAASGSIWLYAMGWYRQAPGKEREFVAAITRRGSSTYYADSVKGRFTISRDNAKNPVLLQMNSLKPEDTAVYYCAGVSQYGKWRGDYWGQGTQVTVSS | high polyreactivity
QVQLVESGAGLVQAGGSRRLSCAASGSIFGVNAMGGYRQAPGKERELVASITGGDSTNYADSVKGRFTISRDNAKNTVYLQMNSLKPEDTAFYYCAKDHYYRYEEGDYWGQGTQVTVSS | low polyreactivity
QVQLVESGAGLVQAGRSLRLSCAASGRTLSRFAMGGYRQAPGKERELVAGITSGGDTRTYYADSVKGRFTISRDYAKNTVYLQMNSLKPEDPAVYYCWGQVTQVTVSS | low polyreactivity
QVQLVESGARLVQAGGSLRLRCAPSGSIFDGYAMGWYRQAPGKEREFVAAISKGGTRTYYADSVKGRFTISRDNAKNTVYLQMNSLIPEDSAVFYCNAYYRREPDDGDYDYWGQGTQVTVSS | high polyreactivity
QVQLVESGEGLVQAGGSLRLSCAASGITFDAYTMGWYRQAPGKERELVAAITWSSTSTYYADSVKGRFTISRDNAKNTVYLQMNSLKPEDTAVFYCAAYRVGDYYWGQGTKVTVSS | low polyreactivity
QVQLVESGGALDQAGGSLRLSCAASGSTFYYYAMGWYRQAPGKERELVAAISTSDGSTYYADSVKGRFTISRDNAKNTVYLQMNSLKPEDTAVYYCAADSHDRFPSYYYWGQGTQVTVSS | low polyreactivity
QVQLVESGGALGQAGGRLRLTCAASGSTFSIYGMGWYRQAHGKEREFVAALRTSGGRTYADSVKGRFTISRDNAKNTVYLQLNSLKPDDPAVDYCAAHVNYIYDWGQGTQVTVSS | high polyreactivity
QVQLVESGGALHQAGGSLRLNCAASGRTFGANAMGWYRQAPGKERELVAAISSSDDSTYYADSVKGRFTISRDNAKKTVYLQMNSLKPEDTAVYYCAAEDVYRQLDYWGQGTQVTVSS | low polyreactivity
QVQLVESGGALVKAGGSLRLSCAASGYIFYGYAMGRYRQAPGKEWELVAAITVRGGSTYYADSVKGRFTISRDNAKNTVYLQMNSLKPEDTAVYYCAAAPQFTFGVGYWGQGTQVTVSS | low polyreactivity
QVQLVESGGALVQAGGSLGLICAASGSIFRWYAMGWYRQAPGKERELVASINSSGDRTYYADSVKGRFTISRDKAKKTVFLQMNSLNPEDTAVYNCAAQISVKVDFWGQGTQVTVSS | high polyreactivity
QVQLVESGGALVQAGGSLRFSCASSGRIFSSNTMGWYRQAPGKERELVAAISRGSITYYAHSVKGRFTISRDNAKNTVYLQMNSLKPEDTAVYYCAAGVGLDNYGYGYWGQGTQVTVSS | low polyreactivity
QVQLVESGGALVQAGGSLRLICAASGGTFTNYAMGWYSQAPGKERELVAAITDSGATTYYADSVKGRFTNSRDNAKNTVYLQMNSLKPEDTAVYYCNAELDLYTDFDYWGQGTQVTVSS | low polyreactivity
QVQLVESGGALVQAGGSLRLSCAASGCIFAPYAMGWYRQAPGKERELVADITEDTGITYYADSVKGRFTISRDNAKNNVYLHMNSLKPVDTAVYYCNAEFYFYDYWGQGTQVTVSS | low polyreactivity
QVQLVESGGALVQAGGSLRLSCAASGFIFFQYAMGWYRQAPGKERELVAAISGSGVTTYYADSVKGRFTISRDNAKNTVYLQMNSLKPEDTAVYYCNAALRWKYDWGQGTQVTVSS | low polyreactivity
QVQLVESGGALVQAGGSLRLSCAASGFTFLIYAKGWYIQAPGKERELVAAITWRGSGTYYADCVKGRFTISRDNGQNTVYLQMNSLKPEDSAVYYCAARTARRTYDYWGQGTQVTVSS | low polyreactivity
